This is an account of results in US20030148951A1.

This assay concerns the target putative EMR2 ligand. The assay can be described thus: flow cytometry on human monocyte-derived macrophages; abolished by EGTA.

Substance “biotinylated soluble EMR2(EGF-1,2,3,4,5) protein-fluorescent bead complex (from UniProt Q9UHX3 24-260) (receptor)” displayed a percent of cells bound of 45 to 50%.
